Laboratory results as given in patent US9844589.

How the values were obtained:
[1] = molecular target: CON6 gp140CF (artificial HIV-1 group M consensus)
[2] = molecular target: CON6 gp120 (artificial HIV-1 group M consensus); experiment: ELISA endpoint titer (3 fold over background) on CON6 gp120

Substance	concentration at endpoint titer [1] [µg/mL]	concentration at endpoint titer [2] [µg/mL]
2F5 (antibody)	0.016	
A32 (antibody)		< 0.125
447 (antibody)		< 0.003
IgG1b12 (antibody)		< 0.002
